Source: patent publication US20240336909A1 (HARPOON THERAPEUTICS, published 2024)

Key:
cynomolgus EpCAM protein = molecular target: T1, cynomolgus EpCAM protein (cynomolgus monkey); assay: colorimetric ELISA
T1 construct: biotinylated in the Octet assays; also called cy EpCAM; cynomolgus monkey EpCAM
Excerpt: (§1) Llamas were immunized with purified EpCAM protein expressed in Expi293 cells. A phage display library for expression of heavy variable antibody domains was constructed from circulating B cells. See van der Linden, de Geus, Stok, Bos,van Wassenaar, Verrips, and Frenken. 2000. J Immunol Methods 240:185-195. Phage clones were screened for binding to EpCAM by expressing anti-EpCAM proteins in E coli, preparing periplasmic extracts, and proteins were screened for human and cynomolgus EpCAM binding activity using a colorimetric ELISA.

human EpCAM protein = molecular target: T2, human EpCAM protein (human, UniProt P16422 24-265); assay: colorimetric ELISA
T2 construct: biotinylated in the Octet assays; also called hu EpCAM; biotinylated human EpCAM protein
T2 sequence (looked up): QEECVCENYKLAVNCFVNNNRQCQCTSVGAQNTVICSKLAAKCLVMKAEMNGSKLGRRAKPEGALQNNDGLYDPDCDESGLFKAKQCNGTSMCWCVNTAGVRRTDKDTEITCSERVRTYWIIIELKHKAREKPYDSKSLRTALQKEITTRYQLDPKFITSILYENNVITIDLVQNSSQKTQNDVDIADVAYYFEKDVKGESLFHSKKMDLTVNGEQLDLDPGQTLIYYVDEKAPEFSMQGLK
Excerpt: as §1

T1 sequence (Q1WER1 24-265): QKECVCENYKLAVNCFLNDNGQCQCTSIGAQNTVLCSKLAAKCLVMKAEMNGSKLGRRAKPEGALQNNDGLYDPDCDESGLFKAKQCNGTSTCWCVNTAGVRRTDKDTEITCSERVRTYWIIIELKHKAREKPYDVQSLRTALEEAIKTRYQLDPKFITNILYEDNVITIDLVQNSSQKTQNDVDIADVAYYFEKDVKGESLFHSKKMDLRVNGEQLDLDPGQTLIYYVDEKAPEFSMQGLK

Binder	Cynomolgus EpCAM/Control (cynomolgus EpCAM protein)	ELISA absorbance (cynomolgus EpCAM protein)	ELISA absorbance (human EpCAM protein)	Human EpCAM/Control (human EpCAM protein)
Llama anti-EpCAM single domain antibody EPL31 (VHH, E. coli periplasmic extract) VHH: QVQLQESGGGLVHTGGSLRLSCAASGDTFLRYAMGWFRQAPGKEREFVAAITWNGGNTDYAGSLKGRFTISRDNTKNTVYLQMNSLKPEDTAVYYCAADLTFGLASSHYQYDYWGQGTQVTVSS	6 ratio	0.5 absorbance	0.6 absorbance	7 ratio
Llama anti-EpCAM single domain antibody EPL15 (VHH, E. coli periplasmic extract) VHH: QVQLQESGGGSVLAGGSLRLSCAASGFTFSSYYMSWVRQAPGKGLEWVSGIHYTGDWTNYADSVKGRFTISRDNAKNELYLEMNNLKPEDTAVYYCARGSDKGQGTQVTVSS	35 ratio	3.2 absorbance	0.7 absorbance	8 ratio
Llama anti-EpCAM single domain antibody EPL34 (VHH, E. coli periplasmic extract) VHH: QVQLQESGGGSVQAGGSLRLSCAASGFTFSSYYMSWVRQAPGKGLEWVSGIHYTGDWTNYADSVKGRFTISRDNAKNELYLEMNNLKPEDTAVYYCARGSDKGQGTQVTVSS	36 ratio	3.1 absorbance	0.9 absorbance	10 ratio
Llama anti-EpCAM single domain antibody EPL86 (VHH, E. coli periplasmic extract) VHH: QVQLQESGGGLVQPGGSLRLSCAASGFTFSDWAMSWVRQAPGKGLEWVSGIHYGDHTTHYADFVKGRFTISRDDAKNTLYLQMNSLKPEDTAVYYCARGSTKGQGTQVTVSS	31 ratio	3 absorbance	0.8 absorbance	8 ratio
Llama anti-EpCAM single domain antibody EPL13 (VHH, E. coli periplasmic extract) VHH: QVQLQESGGGLVQPGGSLRLSCAASGFAFGNHWMYWYRQAPGRGRELVASISSGGSTNYVDSVKGRFTISRDNARNTVYLQMYSLKPEDTAVYYCGTSDNWGQGTQVTVSS	23 ratio	4 absorbance	2.9 absorbance	17 ratio
Llama anti-EpCAM single domain antibody EPL20 (VHH, E. coli periplasmic extract) VHH: QVQLQESGGGLVQAGGSLKLSCAASGNVFRAATMAWYRQAPEKQREMVATIASGGTTNYADFVKGRFTISRDNAKNTVYLQMNTLKPEDTAVYYCNAGYLTSLGPKNYWGQGTQVTVSS	4 ratio	2.2 absorbance	2.9 absorbance	6 ratio

More lines, now with the values ahead:

Cynomolgus EpCAM/Control (cynomolgus EpCAM protein)	ELISA absorbance (cynomolgus EpCAM protein)	ELISA absorbance (human EpCAM protein)	Human EpCAM/Control (human EpCAM protein)	Binder
27 ratio	3.4 absorbance	1.7 absorbance	14 ratio	Llama anti-EpCAM single domain antibody EPL57 (VHH, E. coli periplasmic extract) VHH: QVQLQESGGGLVHTGGSLRLSCAFSGDTFLRYAMGWFRQAPGKEREFVAAITWNGGNTDYADSLKGRFTISRDNTKNTVYLQMNSLRPEDTAVYYCAADLTFGLASSHYQYDYWGQGTQVTVSS
13 ratio	1.3 absorbance	0.9 absorbance	9 ratio	Llama anti-EpCAM single domain antibody EPL136 (VHH, E. coli periplasmic extract) VHH: QVQLQESGGGLVQPGGSLRLSCAASGDTFLRYAMGWFRQAPGKEREFVAAITWNGGNTDYAGSLKGRFTISRDNTKNTVYLQMNSLKPEDTAVYYCAADLTFGLASSHYQYDYWGQGTQVTVSS
7 ratio	0.6 absorbance	0.4 absorbance	5 ratio	Llama anti-EpCAM single domain antibody EPL55 (VHH, E. coli periplasmic extract) VHH: QVQLQESGGGLVQAGGSLRLSCAASGDTFLRYAMGWFRQAPGKEREFVAAITWNGGNTDYAGSLKGRFTISRDNTKNTVYLQMNSLKPEDTAVYYCAADLTFGLASSHYQYDYWGQGTQVTVSS
4 ratio	2.3 absorbance	3.2 absorbance	5 ratio	Llama anti-EpCAM single domain antibody EPL120 (VHH, E. coli periplasmic extract) VHH: QVQLQESGGGLVQAGGSLRLSCAASGFIFRAASISWYRQSPGNERELVATINSGGFTNYADSVLGRFTISRDNAKNTGYLQMNSLKPEDTAVYFCAATFLRSDGQPPIWGQGTQVTVSS
21 ratio	2.2 absorbance	3.1 absorbance	31 ratio	Llama anti-EpCAM single domain antibody EPL153 (VHH, E. coli periplasmic extract) VHH: QVQLQESGGGLVQPGGSLRLSCAASGFTFSDWAMSWVRQAPGKGLEWVSSIHYGDHTTHYADFVKGRFTISRDDAKNTLYLQMNSLKPEDTAVYYCEKGTTRGQGTQVTVSS
29 ratio	3.1 absorbance	2 absorbance	20 ratio	Llama anti-EpCAM single domain antibody EPL129 (VHH, E. coli periplasmic extract) VHH: QVQLQESGGGLVQAGGSLRLSCAASGFAFGNHWMYWYRQAPGRGRELVASISSGGSTNYVDSVKGRFTISRDNARNTVYLQMYSLRPEDTAVYYCGTSDNWGQGTQVTVSS
8 ratio	3.5 absorbance	3.5 absorbance	8 ratio	Llama anti-EpCAM single domain antibody EPL125 (VHH, E. coli periplasmic extract) VHH: QVQLQESGGGLVQAGGSLRLSCAASGNVFRAATMAWYRQVPEKQREMVATIASGGTTNYADFVKGRFTISRDNAKNTVYLQMNTLKPEDTAVYYCNALYLTSLGPKSYWGQGTQVTVSS
